According to patent publication US20030028904A1:

Target: His-tagged Dock180 (UniProt Q14185)
Assay: cell-based or functional assay

ELMO1-GFP, sequence (Q8BPU7 whole entry): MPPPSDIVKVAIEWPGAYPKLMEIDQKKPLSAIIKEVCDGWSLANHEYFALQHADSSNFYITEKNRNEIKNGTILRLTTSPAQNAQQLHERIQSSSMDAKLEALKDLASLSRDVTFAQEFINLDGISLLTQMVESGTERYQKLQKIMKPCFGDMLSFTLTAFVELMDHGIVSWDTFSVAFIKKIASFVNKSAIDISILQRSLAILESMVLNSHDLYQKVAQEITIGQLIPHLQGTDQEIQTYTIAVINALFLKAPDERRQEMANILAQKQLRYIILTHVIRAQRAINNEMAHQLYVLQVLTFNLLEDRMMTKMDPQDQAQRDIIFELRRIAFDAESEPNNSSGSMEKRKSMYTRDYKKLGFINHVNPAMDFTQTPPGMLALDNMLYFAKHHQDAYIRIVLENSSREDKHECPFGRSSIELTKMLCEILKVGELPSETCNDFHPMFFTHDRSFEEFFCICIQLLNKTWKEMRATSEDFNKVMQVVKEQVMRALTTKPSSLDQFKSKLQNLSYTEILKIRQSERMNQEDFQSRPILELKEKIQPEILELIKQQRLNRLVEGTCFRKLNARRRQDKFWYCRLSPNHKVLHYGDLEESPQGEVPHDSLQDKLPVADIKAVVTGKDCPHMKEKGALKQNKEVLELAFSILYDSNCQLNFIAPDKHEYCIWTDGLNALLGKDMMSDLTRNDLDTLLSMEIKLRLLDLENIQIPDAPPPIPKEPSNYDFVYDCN

bead uptake in the LR73 phagocytosis assay (GFP positive cells with engulfed particles): 2 fold
Substance: ELMO1-GFP (from UniProt Q8BPU7 1-727)
